Assay results taken from US20210063414A1, “METHODS FOR PREVENTING AND/OR TREATING BONE LOSS CONDITIONS BY MODULATING IRISIN” (Dana-Farber Cancer Institute, Inc., priority 2018, published 2021).

How the values were obtained:
Test in all cases: Crosslinking/co-immunoprecipitation/mass spectrometry (TMT quantitative proteomics) to identify irisin receptors
Type in all cases: binding
[1] = target: T1, MLO-Y4 cell surface proteins (Mus musculus, UniProt Q99KR7); conditions: co-precipitated protein Ppif (PPIF_MOUSE)
T1 construct: endogenous in cells; host or cells: MLO-Y4
T1 sequence (Q99KR7 30-206): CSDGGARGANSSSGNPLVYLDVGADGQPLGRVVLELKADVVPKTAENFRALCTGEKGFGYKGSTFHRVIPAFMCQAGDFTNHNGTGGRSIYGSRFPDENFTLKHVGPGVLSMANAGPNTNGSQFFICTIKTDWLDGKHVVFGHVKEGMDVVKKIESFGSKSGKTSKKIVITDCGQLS
Outline: (§1)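 Relative protein abundance came from 6-plex TMT MS3 quantitation on an Orbitrap Fusion Lumos, after in-gel trypsin digestion of Coomassie-stained SDS-PAGE lanes. Input was a Ni-NTA pulldown (250 mM imidazole elution) of lysates from murine MLO-Y4 cells. These cells were treated on ice with His-tagged irisin or adipsin (10 nM, 20 min) in serum-free medium, then crosslinked with 1.5 mM DTSSP for 30 min.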

[2] = target: T2, MLO-Y4 cell surface proteins (Mus musculus, UniProt P97350); conditions: co-precipitated protein Pkp1 (PKP1_MOUSE)
T2 construct: endogenous in cells; host or cells: MLO-Y4
T2 sequence (P97350 1-728): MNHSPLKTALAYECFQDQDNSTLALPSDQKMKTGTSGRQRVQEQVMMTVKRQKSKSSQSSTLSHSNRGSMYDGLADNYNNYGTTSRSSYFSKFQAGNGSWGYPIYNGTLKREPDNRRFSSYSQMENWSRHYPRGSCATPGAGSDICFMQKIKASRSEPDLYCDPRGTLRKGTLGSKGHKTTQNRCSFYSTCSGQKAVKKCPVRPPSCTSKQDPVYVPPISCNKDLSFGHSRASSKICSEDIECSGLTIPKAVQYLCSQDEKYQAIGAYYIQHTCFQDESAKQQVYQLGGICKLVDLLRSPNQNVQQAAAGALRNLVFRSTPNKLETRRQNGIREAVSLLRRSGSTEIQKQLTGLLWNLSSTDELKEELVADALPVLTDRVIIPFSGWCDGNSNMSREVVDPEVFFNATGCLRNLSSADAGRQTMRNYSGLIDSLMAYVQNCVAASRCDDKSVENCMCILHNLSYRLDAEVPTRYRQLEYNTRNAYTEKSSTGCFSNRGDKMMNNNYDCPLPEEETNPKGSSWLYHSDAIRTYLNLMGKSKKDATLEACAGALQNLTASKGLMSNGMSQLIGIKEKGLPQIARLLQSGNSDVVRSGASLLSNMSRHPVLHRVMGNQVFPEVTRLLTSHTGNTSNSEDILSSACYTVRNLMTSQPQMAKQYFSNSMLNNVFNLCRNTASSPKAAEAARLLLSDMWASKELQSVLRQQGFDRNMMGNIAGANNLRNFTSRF
Outline: as §1

[3] = target: T3, MLO-Y4 cell surface proteins (Mus musculus, UniProt Q8R1I1); conditions: co-precipitated protein Uqcr10 (QCR9_MOUSE)
T3 construct: endogenous in cells; host or cells: MLO-Y4
T3 sequence (Q8R1I1 1-64): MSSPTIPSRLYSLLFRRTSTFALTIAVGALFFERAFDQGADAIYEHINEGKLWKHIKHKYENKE
Outline: as §1

[4] = target: T4, MLO-Y4 cell surface proteins (Mus musculus, UniProt Q9DCW4); conditions: co-precipitated protein Etfb (ETFB_MOUSE)
T4 construct: endogenous in cells; host or cells: MLO-Y4
T4 sequence (Q9DCW4 1-255): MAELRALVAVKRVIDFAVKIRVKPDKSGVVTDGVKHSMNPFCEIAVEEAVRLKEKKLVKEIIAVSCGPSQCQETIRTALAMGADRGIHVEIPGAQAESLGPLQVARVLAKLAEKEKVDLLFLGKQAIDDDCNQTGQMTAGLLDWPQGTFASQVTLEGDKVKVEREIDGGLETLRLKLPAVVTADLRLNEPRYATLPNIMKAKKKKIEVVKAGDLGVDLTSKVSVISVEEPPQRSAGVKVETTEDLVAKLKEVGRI
Outline: as §1

B1: irisin: secreted cleaved form of FNDC5; recombinant human/mouse irisin with C-terminal his tag produced in HEK293 cells (protein)
chain: DSPSAPVNVTVRHLKANSAVVSWDVLEDEVVIGFAISQQKKDVRMLRFIQEVNTTTRSCALWDLEEDTEYIVHVQAISIQGQSPASEPVLFKTPREAEKMASKNKDEVTMKE
modifications: left off: small tags and cut ends
notes: secreted cleaved form of FNDC5; recombinant human/mouse irisin with C-terminal his tag produced in HEK293 cells
B1 was tested, and the TMT signal-to-noise ratio [1] was 49.7858, the “irisin/adipsin TMT signal-to-noise ratio” value [1] was 0.199 and the TMT signal-to-noise ratio [2] was 8.015. For the same molecule, the “irisin/adipsin TMT signal-to-noise ratio” value [2] was 0.082, the TMT signal-to-noise ratio [3] was 125.477 and the “irisin/adipsin TMT signal-to-noise ratio” value [3] was 0.516. The TMT signal-to-noise ratio [4] was 409.026 and the “irisin/adipsin TMT signal-to-noise ratio” value [4] was 0.560.
